Assay results published in the supplement of paper PMC10065799, “High-throughput profiling of sequence recognition by tyrosine kinases and SH2 domains using bacterial peptide display” (eLife, 2023).

Biological target: FGFR3 (UniProt P22607)
Assay: phosphorylation enrichment, bacterial display (enrichment ratio); higher = better substrate or ligand; peptides without Tyr show the background
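Also: 11-residue human phosphosite peptides and single-mutation variants displayed on the E. coli surface, counted by deep sequencing, each peptide's frequency after selection divided by its frequency in the unselected input library; frequency after pTyr selection over input frequency; kinase dosed for 20-30% of maximal phosphorylation in three min.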

FGFR3, sequence (P22607 whole entry, looked up): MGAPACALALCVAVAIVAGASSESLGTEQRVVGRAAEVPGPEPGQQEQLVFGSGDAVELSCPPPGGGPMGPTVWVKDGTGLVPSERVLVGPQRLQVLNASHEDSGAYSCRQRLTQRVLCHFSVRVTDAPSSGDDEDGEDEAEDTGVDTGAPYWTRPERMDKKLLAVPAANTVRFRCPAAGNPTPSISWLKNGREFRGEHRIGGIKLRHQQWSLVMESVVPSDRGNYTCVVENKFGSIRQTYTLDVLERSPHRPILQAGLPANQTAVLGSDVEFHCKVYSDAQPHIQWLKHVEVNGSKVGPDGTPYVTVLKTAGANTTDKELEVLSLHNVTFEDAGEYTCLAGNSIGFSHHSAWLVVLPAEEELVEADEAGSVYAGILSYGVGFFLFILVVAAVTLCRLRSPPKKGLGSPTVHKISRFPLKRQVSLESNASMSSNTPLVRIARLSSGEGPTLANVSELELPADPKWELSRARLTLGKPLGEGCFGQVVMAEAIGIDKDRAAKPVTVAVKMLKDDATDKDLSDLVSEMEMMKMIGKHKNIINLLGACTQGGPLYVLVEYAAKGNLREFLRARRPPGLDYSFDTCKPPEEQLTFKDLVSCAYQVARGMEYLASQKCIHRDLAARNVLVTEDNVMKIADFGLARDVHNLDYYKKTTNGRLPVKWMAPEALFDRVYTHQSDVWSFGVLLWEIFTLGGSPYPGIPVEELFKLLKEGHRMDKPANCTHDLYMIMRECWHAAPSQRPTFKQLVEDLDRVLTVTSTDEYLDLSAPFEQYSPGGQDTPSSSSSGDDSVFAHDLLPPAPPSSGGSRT

Point of comparison: ALECLYHREKR [TEKT5_Y195], phosphorylation enrichment 0.734. Against it:
- EFKKHYGYSLY [ANXA3_Y295] — lower, 0.38
- LKEIHYPPFTD [ALDH3B2_Y362_YF] — lower, 0.555
- NQELIYEGQRL [TBK1_Y354_R357Q] — higher, 0.739
- YRRITYYNWRH [PDE6B_Y556_H557Y] — lower, 0.598
- CTTIHCNYMCN [TP53_Y234_Y234C] — lower, 0.731
- HGEAYYSEVKP [PAK5_Y182] — higher, 1.93
- MKVPLYETPAG [PGM5_Y358_V357L] — lower, 0.632
- PLYGEYFTLQI [TP53_Y327_D324Y] — higher, 14.9
- DAVAVYDGKIS [SH2D1A_Y7_H8D] — lower, 0.565
- SVTCTYFPALN [TP53_Y126_S127F] — higher, 1.01
- LSGVIYVILRK [PMP22_Y153] — higher, 1.11
- LLVVLYKYRCY [PSEN1_Y154] — lower, 0.615
- QLCVNYPGGYT [PROS1_Y259] — higher, 1.42
- LDYNEYFRGLN [HPRT1_Y198_D201G] — higher, 1.85
- LVMFIYAISGM [SCN1A_Y1684_F1687S] — higher, 1.01
- EEGEEYGGGGG [TUBA1A_Y451] — lower, 0.701
- FQHLRYIKQLG [SAMHD1_Y146_R143H] — lower, 0.611
- PESCFYKESWL [IQGAP2_Y630_L629F] — higher, 1.31
- PTTKTYFPHFA [HBA1_Y43_D48A] — lower, 0.599
- CTTIHYNYMFN [TP53_Y234_C238F] — higher, 0.812
- QRRYLYYYSYL [PTEN_Y176_V175L] — higher, 3.52
- FFRCHYPLTTL [TNS4_Y644_R642C] — lower, 0.696
- ALLTKYSRSSM [DSCC1_Y374_H376R] — lower, 0.554
- FGGRDYSLDEF [MYOF_Y1705_YF] — lower, 0.733
- ENKGVYVPMSG [IVD_Y277_L279P] — lower, 0.531
- RSRRSYSCQVM [IGLL1_Y192] — higher, 0.832
- AARVSYRLASG [DCHS1_Y1582] — lower, 0.392
- SEVVPYEPPEV [TP53_Y220_V216E] — higher, 0.81
- CRPPFYHRNCM [HGD_Y334_F329C_YF] — lower, 0.635
- LAGRYYALKSM [CKB_Y174] — higher, 0.957
- SNKELYEKYMI — lower, 0.579
- ADGLEYSRTEL [MMUT_Y287_G291E] — lower, 0.637

Test system: Fer (mouse)
Assay: as above

Point of comparison: LVMFIYAISGM [SCN1A_Y1684_F1687S], phosphorylation enrichment 0.813. Against it:
- EFKKHYGYSLY [ANXA3_Y295] — lower, 0.353
- LKEIHYPPFTD [ALDH3B2_Y362_YF] — lower, 0.413
- NQELIYEGQRL [TBK1_Y354_R357Q] — higher, 11.6
- YRRITYYNWRH [PDE6B_Y556_H557Y] — lower, 0.442
- CTTIHCNYMCN [TP53_Y234_Y234C] — lower, 0.599
- HGEAYYSEVKP [PAK5_Y182] — higher, 11.2
- MKVPLYETPAG [PGM5_Y358_V357L] — higher, 16.7
- PLYGEYFTLQI [TP53_Y327_D324Y] — higher, 3.72
- DAVAVYDGKIS [SH2D1A_Y7_H8D] — lower, 0.456
- SVTCTYFPALN [TP53_Y126_S127F] — lower, 0.637
- LSGVIYVILRK [PMP22_Y153] — lower, 0.504
- LLVVLYKYRCY [PSEN1_Y154] — lower, 0.699
- ALECLYHREKR [TEKT5_Y195] — lower, 0.451
- QLCVNYPGGYT [PROS1_Y259] — lower, 0.811
- LDYNEYFRGLN [HPRT1_Y198_D201G] — higher, 1.06
- EEGEEYGGGGG [TUBA1A_Y451] — lower, 0.552
- FQHLRYIKQLG [SAMHD1_Y146_R143H] — lower, 0.436
- PESCFYKESWL [IQGAP2_Y630_L629F] — higher, 0.973
- PTTKTYFPHFA [HBA1_Y43_D48A] — lower, 0.384
- CTTIHYNYMFN [TP53_Y234_C238F] — lower, 0.757
- QRRYLYYYSYL [PTEN_Y176_V175L] — lower, 0.671
- FFRCHYPLTTL [TNS4_Y644_R642C] — lower, 0.39
- ALLTKYSRSSM [DSCC1_Y374_H376R] — lower, 0.442
- FGGRDYSLDEF [MYOF_Y1705_YF] — lower, 0.493
- ENKGVYVPMSG [IVD_Y277_L279P] — lower, 0.405
- RSRRSYSCQVM [IGLL1_Y192] — lower, 0.639
- AARVSYRLASG [DCHS1_Y1582] — lower, 0.51
- SEVVPYEPPEV [TP53_Y220_V216E] — lower, 0.585
- CRPPFYHRNCM [HGD_Y334_F329C_YF] — lower, 0.375
- LAGRYYALKSM [CKB_Y174] — lower, 0.545
- SNKELYEKYMI — higher, 7.5
- ADGLEYSRTEL [MMUT_Y287_G291E] — lower, 0.56

Biological target: Fes (UniProt P07332)
Assay: as above

Fes, sequence (P07332 whole entry, looked up): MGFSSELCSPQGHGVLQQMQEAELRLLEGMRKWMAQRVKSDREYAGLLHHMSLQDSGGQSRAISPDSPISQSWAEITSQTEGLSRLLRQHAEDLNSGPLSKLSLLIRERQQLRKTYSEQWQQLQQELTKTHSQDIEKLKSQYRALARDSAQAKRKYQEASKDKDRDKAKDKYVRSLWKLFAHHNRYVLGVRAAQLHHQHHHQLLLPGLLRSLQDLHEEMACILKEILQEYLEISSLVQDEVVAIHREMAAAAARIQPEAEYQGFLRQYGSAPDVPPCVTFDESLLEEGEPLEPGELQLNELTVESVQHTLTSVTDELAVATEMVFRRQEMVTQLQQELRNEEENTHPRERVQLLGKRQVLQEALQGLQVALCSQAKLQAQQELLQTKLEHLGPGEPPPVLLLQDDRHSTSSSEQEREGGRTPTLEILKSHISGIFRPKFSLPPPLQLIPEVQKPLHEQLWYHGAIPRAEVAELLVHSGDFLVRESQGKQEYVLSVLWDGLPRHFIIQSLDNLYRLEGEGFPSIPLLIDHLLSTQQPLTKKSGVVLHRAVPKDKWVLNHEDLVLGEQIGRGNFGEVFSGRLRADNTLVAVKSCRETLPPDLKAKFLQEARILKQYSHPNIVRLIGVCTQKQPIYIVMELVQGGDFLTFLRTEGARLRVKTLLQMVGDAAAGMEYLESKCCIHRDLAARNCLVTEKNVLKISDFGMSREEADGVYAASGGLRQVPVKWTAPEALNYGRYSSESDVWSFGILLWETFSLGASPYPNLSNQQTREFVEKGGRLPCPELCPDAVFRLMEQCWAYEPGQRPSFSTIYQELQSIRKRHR

Point of comparison: SVTCTYFPALN [TP53_Y126_S127F], phosphorylation enrichment 1.82. Against it:
- EFKKHYGYSLY [ANXA3_Y295] — lower, 0.611
- LKEIHYPPFTD [ALDH3B2_Y362_YF] — lower, 0.9
- NQELIYEGQRL [TBK1_Y354_R357Q] — lower, 1.42
- YRRITYYNWRH [PDE6B_Y556_H557Y] — lower, 0.549
- CTTIHCNYMCN [TP53_Y234_Y234C] — lower, 1.15
- HGEAYYSEVKP [PAK5_Y182] — lower, 1.62
- MKVPLYETPAG [PGM5_Y358_V357L] — lower, 1.06
- PLYGEYFTLQI [TP53_Y327_D324Y] — higher, 2.44
- DAVAVYDGKIS [SH2D1A_Y7_H8D] — lower, 0.988
- LSGVIYVILRK [PMP22_Y153] — lower, 0.823
- LLVVLYKYRCY [PSEN1_Y154] — lower, 1.79
- ALECLYHREKR [TEKT5_Y195] — lower, 1.15
- QLCVNYPGGYT [PROS1_Y259] — lower, 1.66
- LDYNEYFRGLN [HPRT1_Y198_D201G] — higher, 1.95
- LVMFIYAISGM [SCN1A_Y1684_F1687S] — higher, 1.99
- EEGEEYGGGGG [TUBA1A_Y451] — lower, 1.32
- FQHLRYIKQLG [SAMHD1_Y146_R143H] — lower, 0.775
- PESCFYKESWL [IQGAP2_Y630_L629F] — lower, 1.57
- PTTKTYFPHFA [HBA1_Y43_D48A] — lower, 0.724
- CTTIHYNYMFN [TP53_Y234_C238F] — lower, 1.21
- QRRYLYYYSYL [PTEN_Y176_V175L] — lower, 0.887
- FFRCHYPLTTL [TNS4_Y644_R642C] — lower, 1.01
- ALLTKYSRSSM [DSCC1_Y374_H376R] — lower, 0.744
- FGGRDYSLDEF [MYOF_Y1705_YF] — lower, 1.18
- ENKGVYVPMSG [IVD_Y277_L279P] — lower, 0.559
- RSRRSYSCQVM [IGLL1_Y192] — lower, 0.862
- AARVSYRLASG [DCHS1_Y1582] — lower, 0.588
- SEVVPYEPPEV [TP53_Y220_V216E] — lower, 1.33
- CRPPFYHRNCM [HGD_Y334_F329C_YF] — lower, 0.776
- LAGRYYALKSM [CKB_Y174] — lower, 0.852
- SNKELYEKYMI — lower, 0.802
- ADGLEYSRTEL [MMUT_Y287_G291E] — lower, 0.873

Biological target: Fyn (UniProt P06241)
Assay: as above

Fyn, sequence (P06241 whole entry, looked up): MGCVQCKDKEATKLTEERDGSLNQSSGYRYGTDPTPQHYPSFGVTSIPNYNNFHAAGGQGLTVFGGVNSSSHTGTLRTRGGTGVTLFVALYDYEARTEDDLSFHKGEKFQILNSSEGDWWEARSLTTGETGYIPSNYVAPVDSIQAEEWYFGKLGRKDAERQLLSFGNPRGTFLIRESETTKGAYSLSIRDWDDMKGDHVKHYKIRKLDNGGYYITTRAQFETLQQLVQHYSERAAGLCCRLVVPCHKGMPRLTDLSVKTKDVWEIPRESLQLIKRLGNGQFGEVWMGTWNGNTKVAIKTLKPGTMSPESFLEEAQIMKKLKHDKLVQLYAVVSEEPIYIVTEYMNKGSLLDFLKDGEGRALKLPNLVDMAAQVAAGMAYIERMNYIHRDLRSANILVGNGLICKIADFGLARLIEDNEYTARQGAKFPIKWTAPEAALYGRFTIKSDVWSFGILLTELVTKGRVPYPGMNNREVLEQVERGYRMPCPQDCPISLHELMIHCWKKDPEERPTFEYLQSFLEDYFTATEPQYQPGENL

Point of comparison: SEVVPYEPPEV [TP53_Y220_V216E], phosphorylation enrichment 0.583. Against it:
- EFKKHYGYSLY [ANXA3_Y295] — lower, 0.433
- LKEIHYPPFTD [ALDH3B2_Y362_YF] — lower, 0.437
- NQELIYEGQRL [TBK1_Y354_R357Q] — higher, 7.4
- YRRITYYNWRH [PDE6B_Y556_H557Y] — lower, 0.483
- CTTIHCNYMCN [TP53_Y234_Y234C] — lower, 0.403
- HGEAYYSEVKP [PAK5_Y182] — higher, 1.96
- MKVPLYETPAG [PGM5_Y358_V357L] — higher, 1.82
- PLYGEYFTLQI [TP53_Y327_D324Y] — higher, 16.3
- DAVAVYDGKIS [SH2D1A_Y7_H8D] — higher, 0.655
- SVTCTYFPALN [TP53_Y126_S127F] — lower, 0.487
- LSGVIYVILRK [PMP22_Y153] — lower, 0.279
- LLVVLYKYRCY [PSEN1_Y154] — lower, 0.532
- ALECLYHREKR [TEKT5_Y195] — lower, 0.512
- QLCVNYPGGYT [PROS1_Y259] — higher, 1
- LDYNEYFRGLN [HPRT1_Y198_D201G] — higher, 1.6
- LVMFIYAISGM [SCN1A_Y1684_F1687S] — lower, 0.442
- EEGEEYGGGGG [TUBA1A_Y451] — lower, 0.557
- FQHLRYIKQLG [SAMHD1_Y146_R143H] — lower, 0.393
- PESCFYKESWL [IQGAP2_Y630_L629F] — higher, 0.616
- PTTKTYFPHFA [HBA1_Y43_D48A] — higher, 0.798
- CTTIHYNYMFN [TP53_Y234_C238F] — lower, 0.555
- QRRYLYYYSYL [PTEN_Y176_V175L] — higher, 1.62
- FFRCHYPLTTL [TNS4_Y644_R642C] — lower, 0.374
- ALLTKYSRSSM [DSCC1_Y374_H376R] — lower, 0.465
- FGGRDYSLDEF [MYOF_Y1705_YF] — lower, 0.401
- ENKGVYVPMSG [IVD_Y277_L279P] — lower, 0.367
- RSRRSYSCQVM [IGLL1_Y192] — higher, 0.808
- AARVSYRLASG [DCHS1_Y1582] — lower, 0.315
- CRPPFYHRNCM [HGD_Y334_F329C_YF] — lower, 0.492
- LAGRYYALKSM [CKB_Y174] — higher, 0.668
- SNKELYEKYMI — higher, 0.593
- ADGLEYSRTEL [MMUT_Y287_G291E] — lower, 0.527
